Assay results reported in the RNAGym collection of RNA variant scans (doi:10.1073/pnas.2313332121).

B1: TPR t1 (parent)
chain: GACCAAUCUGCCCUCAGAGCUCGAGAACAUCUUCGGAUGCAGAGGAGGCAGGCUUCGGUGGCGCGAUAGCGCCAACGUCCUCAACCUCCAAUGCAUCCCACCACAUGAUGAUGCCUGAAGAGCCUUGGUUUUUUG

Variants of: B1
Assay: polymerase ribozyme fitness, log enrichment relative to wild type (log ratio); higher = more active; in vitro selection for triplet polymerase activity
Summary of the method: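 Fitness compares each genotype's enrichment to that of the wild type on a logarithmic scale, averaging replicates with inverse-variance weights. The logarithm is base 2. Enrichment came from Illumina sequencing of input and output libraries after one triplicate round of in vitro selection, which included frozen incubation at −7 °C, of PCR-built, transcribed mutant libraries of each subunit of a heterodimeric triplet polymerase ribozyme. Only genotypes with ≥10 input reads and ≥1 read per output were kept.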

Row | Variant | polymerase ribozyme fitness (log ratio)
1 | A18U C62G A121U | -2.71
2 | A18U C73U C101U G120A | -2.78
3 | A18G G69A C88G G113C | -5.21
4 | A18C A50C G60A A84G U92A | -6.2
5 | A18C A43G G47C U54C C114U U126A | -5.87
6 | A16G G65U C73G C89A C123A | -7.69
7 | A18G G42A C72G G113A U132A | -2.54
8 | A16U C28U C76G C82U U116A | -3.83
9 | G17C C34U G42U C70A C123A | -6.07
10 | A18U A43U U59G G113A U125C | -2.05
11 | A16G A74U | -1.36
12 | G17U G48U C70U U78C U87G U112A | -4.19
13 | A18C U92G A121G | -0.659
14 | G17U A46C C62U U112A C115A U132G U134A | 0.56
15 | A18G G19A C88U A90G | -1.41
16 | A16G A46U C124U | -0.673
17 | G17A U38G C115A U116A U131C | -2.73
18 | G17C A29G C72A | -5.8
19 | A16C U112C | -0.921
20 | A16U G51U | -4.76
21 | A18C G52U A74U A95U A121G | -3.61

Row | Variant | polymerase ribozyme fitness (log ratio)
22 | A18C U87G U132A | -2.91
23 | A16U G69A C82G C97A C114U U133G | -5.51
24 | C15U G57U C72G U81G | -2.79
25 | C15U G69U | -1.38
26 | A16U C40G C56U U112G | -0.767
27 | A16G G69C A84G C102A C114U C115A | -6.44
28 | G17A G36U G120C C123U C124G | -1.43
29 | G17U C89G C104U | -2.94
30 | G17A C49G A83U U87C G117A | -3.65
31 | A18U C123G U129A | -1.83
32 | A16U G47A C56G C86U C101A A121C | -0.796
33 | A16G G117C | -3.97
34 | G17U C72A | -1.86
35 | A18C G39C A41U C123U | -2.25
36 | A16G G71U C123U | -0.364
37 | A16U G52A C72U | -1.31
38 | C15U G57A G117U | -3.3
39 | G17U U78A | -2.93
40 | G17U C88U G127C | -3.89
41 | G17A A18C C114G C124A G135U | -5.65
42 | G17A U55A G63U A84G | -7.59

Row | Variant | polymerase ribozyme fitness (log ratio)
43 | A16U C79U C86A G120U G128A | -4.89
44 | A16U A27U G61A | -4.42
45 | G17A G42U U106A | -5.21
46 | G17U G135U | -3.6
47 | A18C A43G C85G U96G | -4.07
48 | A18U C20U U87G | -2.42
49 | A16U G45C C56G A83C | -4.35
50 | A18C A118U | -0.81
51 | A16C G23C G61C G63A U87A A105G G110C | -7.62
52 | A16C U87A C123G G128C | -1.81
53 | A18G C56G A103C C115G U129G U130C | -6.47
54 | G17C U106G C115G | 0.318
55 | G17A U78C U129C | -3.37
56 | A16U C62U U81G A121U | -2.2
57 | A18C A41G C101G | -5.9
58 | G17U G44U C72G C85U U96A A121G C124G | -3.95
59 | A16U C73G | -2.59
60 | A16G G61U A66U U81A U106A U116C | -0.459
61 | A16U C85U | -2.77
62 | G17U U78A C79G C115U | -6.15
63 | A18G C20A C64A A111G U112A | -6.09

Row | Variant | polymerase ribozyme fitness (log ratio)
64 | A18C G110A | -3.98
65 | A18G C49G U87A C89A U116C A118G | -4.85
66 | A18C G39U C49U G120C | -4.35
67 | A18G A66U G113A U126C U133A | -4.19
68 | A16C G52A A119G | 0.273
69 | A16U C114A | -4.01
70 | A18C C72U U92G A121G | -0.934
71 | G17A C62G | -5.69
72 | G17U A24G U32C G61C G117C | -6.76
73 | A16C G122A | -4.43
74 | A16U G60C G117C U125A | -4.08
75 | A16C G44C C49U | -3.94
76 | G17U C88U | -2.42
77 | A16U C22G C64U | -4.96
78 | G17U G71A | -3.25
79 | A18C U32C A37U A50U G60A A83U | -4.99
80 | G17U C49A G61A | -2.67
81 | G17C C49G C62A | -7.71
82 | A16G A41C A50U U81A U106A | -2.3
83 | A16G G69U C73U C99U | -2.5
84 | G17A C115U U125A | 0.421
